B1: Thermus thermophilus transcription termination factor Rho (natural protein, UniProt Q5SJE9 1-426, looked up)
chain: MRRKETLQETPLTYQELASKILPELHLLAQEAGIEGYKRMKKDQLIMALLERQTQGEGLRLVKGYLEISQDGYGFLTENLHNLESRVAIVSAGLIKQYALRAGDYVVGQARPPRENERYATLLKVEAVNNLDPEAAKNRPRFDELTPQFPDRQIRLETTPDELSTRVIDLLAPIGRGQRGLIVAPPKAGKTTLLKKIANAVLKNEPDIKVIVLLIDERPEEVTDFRESVQGAEVIASTFDEPPQNHIRVAEFVHERAKRIVEEGGHVMILLDSITRLARANNLVTPPTGRTLSGGLDSAALYFPKRFLGAARNIRGGGSLTILATALVETGSRMDDVIFEEFKGTGNMELHLSRRLEERRIFPAIDILKSGTRREELLLGEEVTHKMWLLRKVLADMDPAEAMEMLLARLARTKNNKEFLASLAAR

Assays:
Assay in all cases: cryo-EM structure
[1] = target: Thermus thermophilus RNA polymerase β subunit (Thermus thermophilus, UniProt Q8RQE9 1-1119)
Chain of Thermus thermophilus RNA polymerase β subunit (Q8RQE9 whole entry): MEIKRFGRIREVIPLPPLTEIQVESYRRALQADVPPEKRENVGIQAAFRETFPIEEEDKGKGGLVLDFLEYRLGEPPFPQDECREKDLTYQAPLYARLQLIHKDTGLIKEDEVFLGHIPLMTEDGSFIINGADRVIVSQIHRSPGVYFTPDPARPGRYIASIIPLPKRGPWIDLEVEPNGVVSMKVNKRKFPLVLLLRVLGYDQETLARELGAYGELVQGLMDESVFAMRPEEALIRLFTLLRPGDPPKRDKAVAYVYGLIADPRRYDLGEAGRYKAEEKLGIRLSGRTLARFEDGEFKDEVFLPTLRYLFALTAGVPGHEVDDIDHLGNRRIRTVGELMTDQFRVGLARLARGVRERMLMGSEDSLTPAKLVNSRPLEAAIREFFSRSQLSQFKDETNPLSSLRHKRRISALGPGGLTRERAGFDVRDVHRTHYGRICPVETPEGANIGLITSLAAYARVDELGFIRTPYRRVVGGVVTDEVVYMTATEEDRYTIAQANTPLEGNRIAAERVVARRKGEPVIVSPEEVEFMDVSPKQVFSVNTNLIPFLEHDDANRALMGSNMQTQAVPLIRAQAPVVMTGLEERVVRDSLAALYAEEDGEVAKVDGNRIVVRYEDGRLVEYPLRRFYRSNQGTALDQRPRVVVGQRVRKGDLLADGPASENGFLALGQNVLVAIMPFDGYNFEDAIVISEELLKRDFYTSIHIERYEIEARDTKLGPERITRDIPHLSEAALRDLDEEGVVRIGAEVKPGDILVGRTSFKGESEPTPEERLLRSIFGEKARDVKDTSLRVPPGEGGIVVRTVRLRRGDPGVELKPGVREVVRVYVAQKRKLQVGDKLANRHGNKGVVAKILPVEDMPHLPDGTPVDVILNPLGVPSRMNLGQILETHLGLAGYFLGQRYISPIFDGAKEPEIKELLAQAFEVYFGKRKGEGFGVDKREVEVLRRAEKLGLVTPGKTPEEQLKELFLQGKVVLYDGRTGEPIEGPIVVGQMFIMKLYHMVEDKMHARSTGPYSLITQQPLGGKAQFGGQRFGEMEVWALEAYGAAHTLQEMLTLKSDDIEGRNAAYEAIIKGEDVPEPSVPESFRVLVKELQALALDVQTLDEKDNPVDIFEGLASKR

[2] = target: the molecule itself
[3] = target: Thermus thermophilus RNA polymerase β' subunit (Thermus thermophilus, UniProt Q8RQE8 1-1524)
Chain of Thermus thermophilus RNA polymerase β' subunit (Q8RQE8 whole entry): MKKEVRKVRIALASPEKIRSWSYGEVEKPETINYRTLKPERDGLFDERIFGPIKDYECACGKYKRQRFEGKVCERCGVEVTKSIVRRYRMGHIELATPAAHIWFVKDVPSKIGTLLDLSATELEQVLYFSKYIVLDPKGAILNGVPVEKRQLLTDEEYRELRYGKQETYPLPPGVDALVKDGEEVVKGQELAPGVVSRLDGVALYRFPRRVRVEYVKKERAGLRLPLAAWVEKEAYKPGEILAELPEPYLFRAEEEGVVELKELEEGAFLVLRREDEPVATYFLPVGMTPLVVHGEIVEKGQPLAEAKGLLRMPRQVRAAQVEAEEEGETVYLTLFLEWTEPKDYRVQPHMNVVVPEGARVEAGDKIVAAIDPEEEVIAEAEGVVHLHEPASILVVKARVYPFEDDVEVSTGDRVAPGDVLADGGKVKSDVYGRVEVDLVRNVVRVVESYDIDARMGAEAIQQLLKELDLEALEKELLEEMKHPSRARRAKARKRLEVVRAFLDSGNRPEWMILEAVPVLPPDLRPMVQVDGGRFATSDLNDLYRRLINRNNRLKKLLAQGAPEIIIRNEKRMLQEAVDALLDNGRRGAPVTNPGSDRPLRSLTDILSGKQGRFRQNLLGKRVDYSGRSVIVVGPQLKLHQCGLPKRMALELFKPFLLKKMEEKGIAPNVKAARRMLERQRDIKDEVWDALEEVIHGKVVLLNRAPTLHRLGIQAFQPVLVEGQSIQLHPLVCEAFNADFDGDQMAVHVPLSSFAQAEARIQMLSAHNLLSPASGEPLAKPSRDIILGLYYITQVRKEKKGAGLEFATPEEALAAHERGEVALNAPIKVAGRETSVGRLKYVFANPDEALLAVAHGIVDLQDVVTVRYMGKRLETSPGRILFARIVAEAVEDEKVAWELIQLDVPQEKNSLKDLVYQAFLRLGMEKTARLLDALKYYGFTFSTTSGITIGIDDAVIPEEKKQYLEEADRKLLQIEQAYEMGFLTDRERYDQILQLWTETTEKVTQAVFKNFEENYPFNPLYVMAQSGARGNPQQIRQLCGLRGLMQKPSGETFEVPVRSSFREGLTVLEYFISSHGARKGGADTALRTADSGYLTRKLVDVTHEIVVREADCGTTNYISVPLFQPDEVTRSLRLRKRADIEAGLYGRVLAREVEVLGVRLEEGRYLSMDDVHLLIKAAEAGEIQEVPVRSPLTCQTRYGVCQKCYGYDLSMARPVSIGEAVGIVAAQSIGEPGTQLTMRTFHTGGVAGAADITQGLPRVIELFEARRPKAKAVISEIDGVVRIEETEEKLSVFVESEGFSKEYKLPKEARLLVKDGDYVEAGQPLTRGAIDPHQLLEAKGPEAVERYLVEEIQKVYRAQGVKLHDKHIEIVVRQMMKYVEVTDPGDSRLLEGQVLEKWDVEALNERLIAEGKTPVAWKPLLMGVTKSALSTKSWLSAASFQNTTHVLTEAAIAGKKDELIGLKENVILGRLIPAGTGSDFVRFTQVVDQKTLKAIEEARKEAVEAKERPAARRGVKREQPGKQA

[4] = target: B1

Row | binding result [1] | binding result [3] | binding result [4] | Binder | stoichiometry N [2]
1 | binds | binds |  | B1 | 6
2 |  |  | binds | Thermus thermophilus RNA polymerase ω subunit (natural protein) MAEPGIDKLFGMVDSKYRLTVVVAKRAQQLLRHGFKNTVLEPEERPKMQTLEGLFDDPNAVTWAMKELLTGRLVFGENLVPEDRLQKEMERLYPVEREE | 
